Measurements published in the DeepSol protein solubility set.

Assay: soluble on expression in E. coli; label from the status in PepcDB or PDB records

Row | Sequence | soluble on expression in E. coli
1 | MSLSRSFDTAPLGGRLNLTVADAEVFRNFLPVGQTVKGSLNAAVTLGGSIADPHLGGSINGDKLYYRNQTQGIILDNGSLRSHIAGRKWVIDSLKFRHEGTAELSGTVGMENSGPDVDIGAVFDKYRILSRPNRRLTVSGNTRLRYSPQKGISVTGMIKTDQGLFGSQKSSMPSVGDDVVVLGEVKKEAAAPLPVNMNLTLDLNDGIRFAGYGADVTIGGKLTLTAQSGGSVRGVGTVRVIKGRYKAYGQDLDITKGTVSFVGPLNDPNLNIRAERRLSPVGAGVEILGSLNSPRITLTANEPMSEKDKLSWLILNRAGSGSSGDNAALSAAAGALLAGQINDRIGLVDDLGFTSKRSRNAQTGELNPAEQVLTVGKQLTGKLYIGYEYSISSAEQSVKLIYRLTRAIQAVARIGSRSSGGELTYTIRFDRFSGSDEGHHHHHH | not soluble
2 | MKEMVGGCCVCADENGWTDNPLIYCDGENCEVAVHQGCYGIQEVPEGEWFCAKCTKASAMMPGSINEATFCCQLCPFDYGALKKTDRNGWAHVICALYIPEVRFGNVHSMEPVILNDVPTDKFNKLCYICNEERPNDAKKGACMSCNKSTCKRSFHVTCAQRKGLLCEEGAISRNVKYCGYCENHLKKAINDPAIKVIPACPPVQRLSKEQDKKKTVLLTSLPLPPPAPRLHMLADPLPIKSNKVNNVLGLGSAINAVSLEERPASGSTVNSGIFVPPPTAFSPPLTTSSRSSVAQDPSPPLTINKNSLSSSGPLIPSTAHLSATTASATPIMANGSTLPPSSETTVGTHCLQQLQIQSAAAAAITQNQIGPSELNGYPAASQLSSFMHEIPARNTTSVASLLPPGAAEYHLNGSGDEEKTVKAVLTAPLTKAKRIRDSKNDMMDKTHKRPRANARPPAVLGSMSSGSSGGTVGKSPSMQRLQNLVAPIVSETVTDFQRDRVADRTAAERRAAAAQSQPSTSTNGGPNVTIPAVVEVHTNSTNSTNHQNNGLTQNAPASTSMQAGTSSNDGVISQNGTSSTSQSNRLNLPSFMEQLLERQWDQGSSLLMANAHFDVAQLLSCLFQLKSENFRLEENLSGLRKRRDHLFALNSRLAEVNTLDVSKRQRSDGLLLQQQIAHHLDPTSIVPKAEVHKQEPLSAPTSVPLPANHSSSLFEDIKAPKATYSRKTPSNIPLTVPLSTAATALTTTTAASSGAPVNSNIQNHRATPSTAGAPMAATPIMTAVTSANELAALSPERAQALLNMYRMPLDANVAAQLSMITNFPGQVNPSLFSRLLAVNMMNGGLQPNGQPLSALPPPTSATPNGK | soluble
3 | MRGKAWMLTAVALTGLGLAQIRADGSSTVYPITQAVAEEFVTRNPQVRISVAFSGTGAGFQKFCRGETDVQNASRPIRKSELEACQKAGIQFIEIPVAYDALSILVNRQNTWAQCLTTAQLKSIWEPNAKVNYWKDLNPAWPNRRIVLFGAGTDSGTFDYFTEAIMGRAGSIRKDYFPSEDDNVIMRGVTGNPYAMAFVGFAYYEENKDKVKAVAIDHGKGCVLPSRETVLDGTYQPLSRPLFIYVNVKSLDRPEVQAFVDFYLSPAARRAIRSTGYVELPDEAYRIGQGLVARKKTGSFFTDLPPGTPLAKFIEELRKEVQ | soluble
4 | MTTLSMENFAQLFEESLTLHDMRVGEVITAEVVAVDSNFVTVNAGLKSESLIPAEEFKNDQGVVEVAIGDFVTVAIDALENGFGETKLSREKAKRMAAWVELEEALEAGTILSGMISGKVKGGLTVMVNGIRAFLPGSLVDVRPVKDTTPYENKQIEFKVIKLDRKRNNVVVSRRSVLEETLGEERKALLETLKEGAVIKGIVKNITDYGAFVDLGGIDGLLHITDLAWRRVKHPSEVLAVGDEVEAKVLKFDQEKNRVSLGLKQLGEDPWVGLSRRYPSGTRLFGKVTNLTDYGAFVEIEQGIEGLVHVSEMDWTNKNVHPSKVVQVGDEVEVMILEIDEDRRRISLGMKQCLANPWNEFADNFHKGDKLKGAIKSITDFGVFVGLPGGIDGLVHLSDLSWNEAGEEAVRKFKKGDEVEAVVLSIDVEKERISLGIKQLEGDPFNNFVAMNDKGALVKGTVKSVDAKGAVIALDADVEGYLRASELSRDRVEDARSVLKDGDAVEAVIVAVDRKSRNISLSIKAKDAQEDNAALKSLAVDSASAGTTNLGALLKAKLSGSNE | soluble
5 | LLAKEKYNGTESDDKYDPVEIVKWKIDREDGRKTLNSYINVLVLGLDDDEKRSDVIALINYNPDENKMNILSIARDTRVKVNGKYMKINALIGKGGEKMVIDMVEDITGLPVDYYVTLNFKGFREIVDTLGGVEINVPFDMDYDDPYQNLHIHLKKGKQVLDGKKAEQFVRYRKGNHNGEGYEDGDLGRIKMQQLFMREFVNQKLKLKYLLKADEIFYTLKKNMRTNIEIGDIRYFIKDIKNIKTPEINGYTLPGYSRYIGGQWFYIYDKKKTKELIEQNFYYSN | soluble
6 | MGSDKIHHHHHHGDDDDSSSSGNWQDLSKTYEGKSVNLVMGEVTVPVDGKSVVIAASSAEKASVTLNNIIPENKSVAIDAALKEADGTYTFTGESTVGDCVVSVNGTVKGGVASVVYTRKLTSSIVGNWSLKVGVEAIYANIVTGNSTIDDLVRMIKPAISNLIWGKVSAVNVNLPEDGIFDVSWRPIGASEDKGIGEITKMASIQYCVVDGKFMVAVDKNYVTVLTTLLQQAAGDKLEAAGISIDEIMKLLVDLGGYYGLPLNMKVDGSEATFYADKDLIVPVLTMIAPILKPMVPENYQQMVDMVLQLLPNAKTLEFGLNFTK | not soluble
7 | SVSGLAILYLRRRRAPLARLRQAIQRCEFFVCYQPIVSLSDGRCVGAEALVRWRQQDGTLILPDQFIPLAERSGLILPITDQVIAASMRELGPLLVADRSLHIAINVSVKDIESGRLLDVLALALQDTGLYRKQLWIEATERSFMDARAAREHIVRLREAGYAVVIDDFGTGYSNLQYLQQLPLDALKIDKSFIDTVGRDVTNTAVASHIIDIAKELGMRTIAEGVEREEQLVYLRARGVDMAQGWLFSSP | not soluble
8 | MNLKDMEQNSAKAVVLLKAMANERRLQILCMLHNQELSVGELCAKLQLSQSALSQHLAWLRRDGLVTTRKEAQTVYYTLKSEEVKAMIKLLHSLYCEE | soluble
9 | TVDKRYLNDEHFIDPELVSQRAAPLTEADKQILADKSLGYRVLNLTVDTYNDATTSRWHRSIGGYHAAKLQRYQDLIEHQLSKGNREVVNMLNTKYIIVPGENNRPSPMSNPDAYGPAWPAGSIRWVGNANEEMMALDSNRLTRDIAVVDERFSSESLKRLPALTDSTASISLKEYAPNRQVYEAVSTQPMLGIFSEIYYPHGWTATIDNQAVPIIRANYILRALEVPAGRHKIEFRFDPKSLHITEAIAKT | not soluble
10 | MIEFSENSHRKSLIEELPRIVERGEKEAQKILDGLSKSQRITLQTNELVLPTKAIGELNKFYGQTIKTENNNEFLNRLIYGDNLLAMQAFLAGDPETGLPSMRGKIDLIYIDPPFDSKANYRTKIHLPTADVEQMPSVIEQFAYSDTWKDGTKSYLEMIVPRLVLMKELLSEKGSIYVHIDWHVGHYVKVIMDEIFGRENFVNEIVWKKTNSPKAQSKGFGTQHDVLYIYRKTPQFIFNQIKKEPDEDYLKSYVYDDNDGRGPYQTVALVAGGIQRSENRKIFEFHGVRAPWLYSLENLERFWSDGRIFKTKTGYRLKVYLKDIALRLYLIYGLTRK | not soluble
11 | MSLTNLFQDDSLTLHTDLYQLNMMKAYFDDGLHERRSVFEVFFRDMPFDSGFVVFAGLERIIHYMQNLRFTETDIAYLHDELGFDGPFLEYLRNFKFKGNILAAKEGEFVFKTEPILQVEASLAEAQLIETALLNIVNFQTLIATKAARIRSVIDDETFAEFGTRRAQEMDAAIWGTRAAYIGGCDSTSNVRAGKIFGIPVSGTMAHAMVQAYRDELEAFRSYAKTHFDSIFLVDTYDTLKSGVPNAIKVAKEMGDKINFIGIRLDSGDMAFLSKKARQMLDEAGFTEAKIFASSDLDEHTILSLKAQKAKIDSWGVGTKLITAYDQPALGAVYKMAAIADENDILQDSIKLSSNTEKVSTPGKKKVYRIITNEDGLKAEGDYIALADESLENVDKLTMFHPVHTYIMKTVENFTARELLVPIFQNGELVYDMPSLDEIKAYKEENLALLWDEYKRTVRPEQYPVDLSVKCWKNKMRNIEKVRKSVQLHSPVELDMPFEGHHHHHH | soluble
12 | MGHHHHHHSHSKEITVRGHNCPKPVLNFYEANFPANVMDVIARQNFTEPTAIQAQGWPVALSGLDMVGVAQTGSGKTLSYLLPAIVHINHQPFLERGDGPICLVLAPTRELAQQVQQVAAEYCRACRLKSTCIYGGAPKGPQIRDLERGVEICIATPGRLIDFLECGKTNLRRTTYLVLDEADRMLDMGFEPQIRKIVDQIRPDRQTLMWSATWPKEVRQLAEDFLKDYIHINIGALELSANHNILQIVDVCHDVEKDEKLIRLMEEIMSEKENKTIVFVETKRRCDELTRKMRRDGWPAMGIHGDKSQQERDWVLNEFKHGKAPILIATDVASRGLDVEDVKFVINYDYPNSSEDYIHRIGRTARSTKTGTAYTFFTPNNIKQVSDLISVLR | not soluble
13 | MVFGENQDLIRTHFQKEADKVRAMKTNWGLFTRTRMIAQSDYDFIVTYQQAENEAERSTVLSVFKEKAVYAFVHLMSQISKDDYVRYTLTLIDDMLREDVTRTIIFEDVAVLLKRSPFSFFMGLLHRQDQYIVHITFSILTKMAVFGNIKLSGDELDYCMGSLKEAMNRGTNNDYIVTAVRCMQTLFRFDPYRVSFVNINGYDSLTHALYSTRKCGFQIQYQIIFCMWLLTFNGHAAEVALSGNLIQTISGILGNCQKEKVIRIVVSTLRNLITSNQDVYMKKQAALQMIQNRIPTKLDHLENRKFTDVDLVEDMVYLQTELKKVVQVLTSFDEYENELRQGSLHWSPAHKCEVFWNENAHRLNDNRQELLKLLVAMLEKSNDPLVLCVAAHDIGEFVRYYPRGKLKVEQLGGKEAMMRLLTVKDPNVRYHALLAAQKLMINNWKDLGLEI | not soluble
14 | MPLPTELARHLTEEKIAFVQRSGLRAEVLEPGYVRLRMPGAGNENHIGSMYAGALFTLAELPGGALFLTSFDSARFYPIVKEMTLRFRRPAKGDIRVEARLDAERIRQLETEAGERGKAEYSLELQLTDEQGEVVAESAALYQLRSHARP | soluble
15 | MPTYKLTYFDGRGLAEPARMLFHLGGVPFEDSRIPVDMKTGLIMNPELADVKKKAPFGKYPVLKIDDIEIAQSAAINRYLARQFGFAGKNPIEEAQADSYIDQCQEYNTSFRACMYATLQGKPEEEVQKIREEVYIPAQNKFYEIFSDILNRNKSGFLVGDSLTWADLVIADHLYSLDTMGMLTHEDAWRCETLKKFQEKIYEHPLLKGYIASRPKGAF | not soluble
16 | MGSDKIHHHHHHMKETSRKSGASAAKGKVIITCAVTGAIHTPTMSPYLPITPDQIASEAIAAAQAGAAILHLHARDPETGKPDQTPEAFARFLPRVKQGTNAAINITTGGSPYMKVEERVRPAAQFKPEVASLNMGSINFGLYHLADKYETFKFDWEKPHLEATRDLVFRNSFKDIEYILATCYDNGTRFEFECYDIAHLYNLSHFADRGLVKPPFFVQSVFGLLGGIGTHPEDVAHMKRTADRLFGDQFRWSVLGAGASQLRIAAQSAALGGNIRVGLEDSLWAGKGKLAKSNAEQVVLARKIIEGLGMEVATPDEAREILSLKGGDKVAF | not soluble
17 | MKWEMGLQEEYIELIKAGKKKIEGRLYDEKRRQIKPGDIIIFEGGKLKVKVKGIRVYSSFKEMLEKEGIENVLPGVKSIEEGVKVYRQFYDEEREKKYGVVAIEIEPIE | soluble
18 | ANATVKMGSDSGALVFEPSTVTIKAGEEVKWVNNKLSPHNIVFAADGVDADTAAKLSHKGLAFAAGESFTSTFTEPGTYTYYCEPHRGAGMVGKVVVD | soluble
